Test results: paper PMC10014863, “Structural analysis of the housecleaning nucleoside triphosphate pyrophosphohydrolase MazG from Mycobacterium tuberculosis” (Frontiers in Microbiology, 2023)

Target: the molecule itself
Test: SEC

B1: Mycobacterium tuberculosis MazG (Mtb-MazG), full-length wild type (enzyme)
chain: MIVVLVDPRRPTLVPVEAIEFLRGEVQYTEEMPVAVPWSLPAARSAHAGNDAPVLLSSDPNHPAVITRLAAGARLISAPDSQRGERLVDAVAMMDKLRTAGPWESEQTHDSLRRYLLEETYELLDAVRSGSVDQLREELGDLLLQVLFHARIAEDASQSPFTIDDVADTLMRKLGNRAPGVLAGESISLEDQLAQWEAAKASEKARKSVADDVHTGQPALALAQKVIQRAQKAGLPAHLIPDEITSVSVSADVDAENTLRTAVLDFIDRLRCAERAIAVARRGSNVAEQLDVTPLGVITEQEWLAHWPTAVNDSRGGSKKRKGMR
notes: also called WT MazG; full-length MazG
stoichiometry N: 2
